Source: patent US20150125857A1

Assays:
[1] = target: Frizzled (FZD) on the cell surface of pancreatic cancer cell lines; assay: flow cytometry, YAPC cells treated with 1 uM LGK974
[2] = target: Frizzled (FZD) on the cell surface of pancreatic cancer cell lines; assay: flow cytometry, YAPC cells treated with 3 uM IWP-2
[3] = target: Frizzled (FZD) on the cell surface of pancreatic cancer cell lines; assay: flow cytometry, YAPC cells, RNF43 siRNA
[4] = target: Frizzled (FZD) on the cell surface of pancreatic cancer cell lines; assay: flow cytometry, PaTu-8988S cells, RNF43 siRNA
[5] = target: Frizzled (FZD) on the cell surface of pancreatic cancer cell lines; assay: flow cytometry, YAPC cells stably expressing empty vector (EV)
[6] = target: Frizzled (FZD) on the cell surface of pancreatic cancer cell lines; assay: flow cytometry, YAPC cells transfected with RNF43 siRNA#1, 18R5 + APC anti-human IgG
[7] = target: Frizzled (FZD) on the cell surface of pancreatic cancer cell lines; assay: flow cytometry, HPAFII cells, pGL2 siRNA
[8] = target: Frizzled (FZD) on the cell surface of pancreatic cancer cell lines; assay: flow cytometry, PK1 cells, pGL2 siRNA
[9] = target: Frizzled (FZD) on the cell surface of pancreatic cancer cell lines; assay: flow cytometry, YAPC cells, pGL2 siRNA
[10] = target: Frizzled (FZD) on the cell surface of pancreatic cancer cell lines; assay: flow cytometry, YAPC cells treated with DMSO
[11] = target: Frizzled (FZD) on the cell surface of pancreatic cancer cell lines; assay: flow cytometry, PaTu-8988S cells, pGL2 siRNA
[12] = target: Frizzled (FZD) on the cell surface of pancreatic cancer cell lines; assay: flow cytometry, PK1 cells, RNF43 siRNA
[13] = target: Frizzled (FZD) on the cell surface of pancreatic cancer cell lines; assay: flow cytometry, YAPC cells transfected with beta-catenin siRNA#1
[14] = target: Frizzled (FZD) on the cell surface of pancreatic cancer cell lines; assay: flow cytometry, YAPC cells transfected with beta-catenin siRNA#2
[15] = target: Frizzled (FZD) on the cell surface of pancreatic cancer cell lines; assay: flow cytometry, YAPC cells transfected with pGL2 siRNA (control)
[16] = target: Frizzled (FZD) on the cell surface of pancreatic cancer cell lines; assay: flow cytometry, YAPC cells stably expressing RNF43 deltaRING
[17] = target: Frizzled (FZD) on the cell surface of pancreatic cancer cell lines; assay: flow cytometry, YAPC cells stably expressing wild-type RNF43
[18] = target: Frizzled (FZD) on the cell surface of pancreatic cancer cell lines; assay: flow cytometry, YAPC cells stably expressing RNF43 F69C
[19] = target: Frizzled (FZD) on the cell surface of pancreatic cancer cell lines; assay: flow cytometry, Capan-2 cells, RNF43 siRNA
[20] = target: Frizzled (FZD) on the cell surface of pancreatic cancer cell lines; assay: flow cytometry, Capan-2 cells, pGL2 siRNA
[21] = target: Frizzled (FZD) on the cell surface of pancreatic cancer cell lines; assay: flow cytometry, YAPC cells transfected with pGL2 siRNA (control), 18R5 + APC anti-human IgG
[22] = target: Frizzled (FZD) on the cell surface of pancreatic cancer cell lines; assay: flow cytometry, YAPC cells transfected with RNF43 siRNA#2, 18R5 + APC anti-human IgG
[23] = target: Frizzled (FZD) on the cell surface of pancreatic cancer cell lines; assay: flow cytometry, HPAFII cells, RNF43 siRNA

B1: pan-Frizzled antibody 18R5 (antibody, INN chains, looked up, V domains shown)
VH: EVQLVESGGGLVQPGGSLRLSCAASGFTFSHYTLSWVRQAPGKGLEWVSVISGDGSYTYYADSVKGRFTISSDNSKNTLYLQMNSLRAEDTAVYYCARNFIKYVFANWGQGTLVTVSS
VL: DIELTQPPSVSVAPGQTARISCSGDNIGSFYVHWYQQKPGQAPVLVIYDKSNRPSGIPERFSGSNSGNTATLTISGTQAEDEADYYCQSYANTLSLVFGGGTKLTVL
With B1 the Median FZD intensity in FACS [1] was 1370, the Median FZD intensity in FACS [2] was 1750 and the Mean FZD intensity in FACS [3] was 1220. The Mean FZD intensity in FACS [4] was 245, the membrane Frizzled intensity in flow cytometry (RNF43 re-expression) [5] was 1040 and the Median FZD intensity in FACS [6] was 1500. For the same binder, the Mean FZD intensity in FACS [7] was 375, the Mean FZD intensity in FACS [8] was 473 and the Mean FZD intensity in FACS [9] was 353. The Median FZD intensity in FACS [10] was 721, the Mean FZD intensity in FACS [11] was 293 and the Mean FZD intensity in FACS [12] was 923. For the same binder, the Median FZD intensity in FACS [13] was 530, the Median FZD intensity in FACS [14] was 561 and the Median FZD intensity in FACS [15] was 137. It also gave a membrane Frizzled intensity in flow cytometry (RNF43 re-expression) [16] of 2000, a membrane Frizzled intensity in flow cytometry (RNF43 re-expression) [17] of 686 and a membrane Frizzled intensity in flow cytometry (RNF43 re-expression) [18] of 1500. The Mean FZD intensity in FACS [19] was 2640, the Mean FZD intensity in FACS [20] was 2440 and the Median FZD intensity in FACS [21] was 237. It also gave a Median FZD intensity in FACS [22] of 1750 and a Mean FZD intensity in FACS [23] of 402.
